Measured values: patent US20240270846A1 (published 2024)

How the values were obtained:
[1] = biological target: T1, biotin-labeled human CD137 fused to human IgG1 Fc fragment (human, biotin-labeled); experiment: competitive bead ELISA, IgG on biotin-human CD137-Fc, competitor free CD3 epsilon peptide 125 pmol/well
T1 construct: Immobilised on streptavidin beads through biotin; also called human CD137-Fc; biotin-human CD137-Fc

[2] = biological target: T1, biotin-labeled human CD137 fused to …; experiment: competitive bead ELISA, decrease of signal on biotin-human CD137-Fc with 125 pmol/well free CD3 epsilon peptide against 0
[3] = biological target: T1, biotin-labeled human CD137 fused to …; experiment: bead ELISA, IgG on biotin-human CD137-Fc on streptavidin beads, no free CD3e
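Throughout, for ELISA signal, free CD3e 125 pmol/well: bead ELISA on streptavidin-coated magnetic beads, with the signal read as well fluorescence 2 min after APS-5 addition.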

B1: dBBDu122 (antibody, human IgG1, V domains shown)
VH: QVQLVESGGGLVQPGRSLRLSCAASGFTFSNAWMHWVRQAPGKGLEWVAQIKDRSQLYAAYYAPSVKGRFTISRDDSKNSIYLQMNSLKTEDTAVYYCHYVHYASASTVLGAYGVDAWGQGTTVTVSS
VL: DIVMTQSPLSLPVTPGEPASISCRSSQSLVHSNRNTYLHWYQQKPGQAPRLLIYKVSNRFSGVPDRFSGSGSGTDFTLKISRVEAEDVGVYYCGQGTQVPYTFGQGTKLEIK
notes: IgG: VH joined to human IgG1 CH1-Fc, GLS3000 as light chain; also called DXDU01_3_#072; DXDU01_3 #072
- ELISA signal, free CD3e 125 pmol/well [1]: 1880
- Signal decrease [2]: 30.2%
- ELISA signal, free CD3e 0 pmol/well [3]: 2700

B2: dBBDu204 (antibody, human IgG1, V domains shown)
VH: QVQLVESGGGLVQPGRSLRLSCAASGFTFSNAWMHWVRQAPGKGLEWVAQIKDRSNNYATYYAESVKGRFTISRDDSKNSIYLQMNSLKTEDTAVYYCHYVHYASASTVLPAFGVDAWGQGTTVTVSS
VL: DIVMTQSPLSLPVTPGEPASISCRSSQSLVHSNRNTYLHWYQQKPGQAPRLLIYKVSNRFSGVPDRFSGSGSGTDFTLKISRVEAEDVGVYYCGQGTQVPYTFGQGTKLEIK
notes: IgG: VH joined to human IgG1 CH1-Fc, GLS3000 as light chain
- ELISA signal, free CD3e 125 pmol/well [1]: 1880
- Signal decrease [2]: 95.7%
- ELISA signal, free CD3e 0 pmol/well [3]: 43700

B3: dBBDu193 (antibody, human IgG1, V domains shown)
VH: QVQLVESGGGLVQPGRSLRLSCAASGFTFSNAWMHWVRQAPGKGLEWVAQIKDRSNQYATYYAPSVKGRFTISRDDSKNSIYLQMNSLKTEDTAVYYCHYVHYSAASTLLPSFGVDAWGQGTTVTVSS
VL: DIVMTQSPLSLPVTPGEPASISCRSSQSLVHSNRNTYLHWYQQKPGQAPRLLIYKVSNRFSGVPDRFSGSGSGTDFTLKISRVEAEDVGVYYCGQGTQVPYTFGQGTKLEIK
notes: as for B2
- ELISA signal, free CD3e 125 pmol/well [1]: 2280
- Signal decrease [2]: 87.5%
- ELISA signal, free CD3e 0 pmol/well [3]: 18200

B4: dBBDu196 (antibody, human IgG1, V domains shown)
VH: QVQLVESGGGLVQPGRSLRLSCAASGFTFSNAWMHWVRQAPGKGLEWVAQIKDRGNAYNAYYAESVKGRFTISRDDSKNSIYLQMNSLKTEDTAVYYCHYVHYASASTVLPAFGVDAWGQGTTVTVSS
VL: DIVMTQSPLSLPVTPGEPASISCRSSQSLVHSNRNTYLHWYQQKPGQAPRLLIYKVSNRFSGVPDRFSGSGSGTDFTLKISRVEAEDVGVYYCGQGTQVPYTFGQGTKLEIK
notes: as for B2
- ELISA signal, free CD3e 125 pmol/well [1]: 2220
- Signal decrease [2]: 93.3%
- ELISA signal, free CD3e 0 pmol/well [3]: 33100

B5: dBBDu126 (antibody, human IgG1, V domains shown)
VH: QVQLVESGGGLVQPGRSLRLSCAASGFTFSIAWMHWVRQAPGKGLEWVAQIKDRVNAYEAYYAPSVKGRFTISRDDSKNSIYLQMNSLKTEDTAVYYCRYVHYASYYDLLGYGGVDAWGQGTTVTVSS
VL: DIVMTQSPLSLPVTPGEPASISCRSSQSLVHSNRNTYLHWYQQKPGQAPRLLIYKVSNRFSGVPDRFSGSGSGTDFTLKISRVEAEDVGVYYCGQGTQVPYTFGQGTKLEIK
notes: IgG: VH joined to human IgG1 CH1-Fc, GLS3000 as light chain; also called DADU01_3_#001; DADU01_3 #001
- ELISA signal, free CD3e 125 pmol/well [1]: 2610
- Signal decrease [2]: 97.8%
- ELISA signal, free CD3e 0 pmol/well [3]: 116000

B6: dBBDu127 (antibody, human IgG1, V domains shown)
VH: QVQLVESGGGLVQPGRSLRLSCAASGFTFSNAWMHWVRQAPGKGLEWVAQIKDRGQQYNAYYAPSVKGRFTISRDDSKNSIYLQMNSLKTEDTAVYYCHYVHYASASSVLPGYGVDAWGQGTTVTVSS
VL: DIVMTQSPLSLPVTPGEPASISCRSSQSLVHSNRNTYLHWYQQKPGQAPRLLIYKVSNRFSGVPDRFSGSGSGTDFTLKISRVEAEDVGVYYCGQGTQVPYTFGQGTKLEIK
notes: IgG: VH joined to human IgG1 CH1-Fc, GLS3000 as light chain; also called DXDU01_3_#051; DXDU01_3 #051
- ELISA signal, free CD3e 125 pmol/well [1]: 2200
- Signal decrease [2]: 32%
- ELISA signal, free CD3e 0 pmol/well [3]: 3230

B7: dBBDu179 (antibody, human IgG1, V domains shown)
VH: QVQLVESGGGLVQPGRSLRLSCAASGFTFSNAWMHWVRQAPGKGLEWVAQIKDRSNQYATYYAPSVKGRFTISRDDSKNSIYLQMNSLKTEDTAVYYCHYVHYASASTVLPAFGVDAWGQGTTVTVSS
VL: DIVMTQSPLSLPVTPGEPASISCRSSQSLVHSNRNTYLHWYQQKPGQAPRLLIYKVSNRFSGVPDRFSGSGSGTDFTLKISRVEAEDVGVYYCGQGTQVPYTFGQGTKLEIK
notes: as for B2
- ELISA signal, free CD3e 125 pmol/well [1]: 2620
- Signal decrease [2]: 95.7%
- ELISA signal, free CD3e 0 pmol/well [3]: 61000

B8: dBBDu183 (antibody, human IgG1, V domains shown)
VH: QVQLVESGGGLVQPGRSLRLSCAASGFTFSNAWMHWVRQAPGKGLEWVAQIKDKGNAYAAYYAPSVKGRFTISRDDSKNSIYLQMNSLKTEDTAVYYCHYVHYASASTVLPAFGVDAWGQGTTVTVSS
VL: DIVMTQSPLSLPVTPGEPASISCRSSQSLVHSNRNTYLHWYQQKPGQAPRLLIYKVSNRFSGVPDRFSGSGSGTDFTLKISRVEAEDVGVYYCGQGTQVPYTFGQGTKLEIK
notes: as for B2
- ELISA signal, free CD3e 125 pmol/well [1]: 2370
- Signal decrease [2]: 93%
- ELISA signal, free CD3e 0 pmol/well [3]: 34000

B9: dBBDu199 (antibody, human IgG1, V domains shown)
VH: QVQLVESGGGLVQPGRSLRLSCAASGFTFSNAWMHWVRQAPGKGLEWVAQIKDKQSGYNTYYAPSVKGRFTISRDDSKNSIYLQMNSLKTEDTAVYYCHYVHYASASTVLPAFGVDAWGQGTTVTVSS
VL: DIVMTQSPLSLPVTPGEPASISCRSSQSLVHSNRNTYLHWYQQKPGQAPRLLIYKVSNRFSGVPDRFSGSGSGTDFTLKISRVEAEDVGVYYCGQGTQVPYTFGQGTKLEIK
notes: as for B2
- ELISA signal, free CD3e 125 pmol/well [1]: 2370
- Signal decrease [2]: 94.2%
- ELISA signal, free CD3e 0 pmol/well [3]: 40900

B10: dBBDu123 (antibody, human IgG1, V domains shown)
VH: QVQLVESGGGLVQPGRSLRLSCAASGFTFSNAWMHWVRQAPGKGLEWVAQIKDRANSYNAYYAPSVKGRFTISRDDSKNSIYLQMNSLKTEDTAVYYCHYVHYSAASTLLPSFGVDAWGQGTTVTVSS
VL: DIVMTQSPLSLPVTPGEPASISCRSSQSLVHSNRNTYLHWYQQKPGQAPRLLIYKVSNRFSGVPDRFSGSGSGTDFTLKISRVEAEDVGVYYCGQGTQVPYTFGQGTKLEIK
notes: IgG: VH joined to human IgG1 CH1-Fc, GLS3000 as light chain; also called DADU01_3_#018; DADU01_3 #018
- ELISA signal, free CD3e 125 pmol/well [1]: 1840
- Signal decrease [2]: 33%
- ELISA signal, free CD3e 0 pmol/well [3]: 2750

B11: dBBDu173 (antibody, human IgG1, V domains shown)
VH: QVQLVESGGGLVQPGRSLRLSCAASGFTFSNAWMHWVRQAPGKGLEWVAQIKDKGNLYAAYYAPSVKGRFTISRDDSKNSIYLQMNSLKTEDTAVYYCHYVHYASAGGGLSAYGVDAWGQGTTVTVSS
VL: DIVMTQSPLSLPVTPGEPASISCRSSQSLVHSNRNTYLHWYQQKPGQAPRLLIYKVSNRFSGVPDRFSGSGSGTDFTLKISRVEAEDVGVYYCGQGTQVPYTFGQGTKLEIK
notes: as for B2
- ELISA signal, free CD3e 125 pmol/well [1]: 2040
- Signal decrease [2]: 68.8%
- ELISA signal, free CD3e 0 pmol/well [3]: 6540

B12: dBBDu124 (antibody, human IgG1, V domains shown)
VH: QVQLVESGGGLVQPGRSLRLSCAASGFTFSNAWMHWVRQAPGKGLEWVAQIKDKQNLYNAYYAESVKGRFTISRDDSKNSIYLQMNSLKTEDTAVYYCHYVHYASASTVLPAFGVDAWGQGTTVTVSS
VL: DIVMTQSPLSLPVTPGEPASISCRSSQSLVHSNRNTYLHWYQQKPGQAPRLLIYKVSNRFSGVPDRFSGSGSGTDFTLKISRVEAEDVGVYYCGQGTQVPYTFGQGTKLEIK
notes: IgG: VH joined to human IgG1 CH1-Fc, GLS3000 as light chain; also called DADU01_3_#002; DADU01_3 #002
- ELISA signal, free CD3e 125 pmol/well [1]: 2120
- Signal decrease [2]: 68%
- ELISA signal, free CD3e 0 pmol/well [3]: 6620

B13: dBBDu189 (antibody, human IgG1, V domains shown)
VH: QVQLVESGGGLVQPGRSLRLSCAASGFTFSNAWMHWVRQAPGKGLEWIAQIKDRSNQYATYYAPSVKGRFTISRDDSKNSIYLQMNSLKTEDTAVYYCHYVHYAQASSLLPSFGVDAWGQGTTVTVSS
VL: DIVMTQSPLSLPVTPGEPASISCRSSQSLVHSNRNTYLHWYQQKPGQAPRLLIYKVSNRFSGVPDRFSGSGSGTDFTLKISRVEAEDVGVYYCGQGTQVPYTFGQGTKLEIK
notes: as for B2
- ELISA signal, free CD3e 125 pmol/well [1]: 2190
- Signal decrease [2]: 92%
- ELISA signal, free CD3e 0 pmol/well [3]: 27400

B14: dBBDu186 (antibody, human IgG1, V domains shown)
VH: QVQLVESGGGLVQPGRSLRLSCAASGFTFSNAWMHWVRQAPGKGLEWVAQIKDRSNQYATYYAPSVKGRFTISRDDSKNSIYLQMNSLKTEDTAVYYCHYVHYAQASTVLPAFGVDAWGQGTTVTVSS
VL: DIVMTQSPLSLPVTPGEPASISCRSSQSLVHSNRNTYLHWYQQKPGQAPRLLIYKVSNRFSGVPDRFSGSGSGTDFTLKISRVEAEDVGVYYCGQGTQVPYTFGQGTKLEIK
notes: as for B2
- ELISA signal, free CD3e 125 pmol/well [1]: 2500
- Signal decrease [2]: 92.8%
- ELISA signal, free CD3e 0 pmol/well [3]: 34800

B15: dBBDu202 (antibody, human IgG1, V domains shown)
VH: QVQLVESGGGLVQPGRSLRLSCAASGFTFSNAWMHWVRQAPGKGLEWVAQIKDKGNAYAAYYAPSVKGRFTISRDDSKNSIYLQMNSLKTEDTAVYYCHYVHYSAASTVLPAFGVDAWGQGTTVTVSS
VL: DIVMTQSPLSLPVTPGEPASISCRSSQSLVHSNRNTYLHWYQQKPGQAPRLLIYKVSNRFSGVPDRFSGSGSGTDFTLKISRVEAEDVGVYYCGQGTQVPYTFGQGTKLEIK
notes: as for B2
- ELISA signal, free CD3e 125 pmol/well [1]: 1930
- Signal decrease [2]: 84%
- ELISA signal, free CD3e 0 pmol/well [3]: 12100

B16: dBBDu167 (antibody, human IgG1, V domains shown)
VH: QVQLVESGGGLVQPGRSLRLSCAASGFTFSNAWMHWVRQAPGKGLEWVAQIKDKGNLYAAYYAPSVKGRFTISRDDSKNSIYLQMNSLKTEDTAVYYCHYVHYASAGGGLPGFGVDAWGQGTTVTVSS
VL: DIVMTQSPLSLPVTPGEPASISCRSSQSLVHSNRNTYLHWYQQKPGQAPRLLIYKVSNRFSGVPDRFSGSGSGTDFTLKISRVEAEDVGVYYCGQGTQVPYTFGQGTKLEIK
notes: as for B2
- ELISA signal, free CD3e 125 pmol/well [1]: 1940
- Signal decrease [2]: 92.5%
- ELISA signal, free CD3e 0 pmol/well [3]: 25700
